The target in assay [1] is KDR-IgG (UniProt P35968). Description: competition with 125I-VEGF165 for KDR-IgG, radioligand plate assay.
Assay [2] has as its target KDR receptors on endothelial cells (bovine). Description: cell-based or functional assay.
The target is the same in assay [3]. The assay can be described thus: cell-based or functional assay. This is another data set of the same source.
Assay [4] addresses FLT-1 IgG (UniProt P17948). The assay can be described thus: competition with 125I-VEGF165 for FLT-1-IgG, radioligand plate assay.
Assay [5] deals with KDR-IgG (UniProt P35968). The assay can be described thus: competition with 125I-VEGF165 for KDR-IgG, radioligand plate assay, no heparin.
Assay [6] deals with FLT-1 IgG (UniProt P17948). Description: competition with 125I-VEGF165 for FLT-1-IgG, radioligand plate assay, no heparin.
Sequence of FLT-1 IgG (P17948 27-758): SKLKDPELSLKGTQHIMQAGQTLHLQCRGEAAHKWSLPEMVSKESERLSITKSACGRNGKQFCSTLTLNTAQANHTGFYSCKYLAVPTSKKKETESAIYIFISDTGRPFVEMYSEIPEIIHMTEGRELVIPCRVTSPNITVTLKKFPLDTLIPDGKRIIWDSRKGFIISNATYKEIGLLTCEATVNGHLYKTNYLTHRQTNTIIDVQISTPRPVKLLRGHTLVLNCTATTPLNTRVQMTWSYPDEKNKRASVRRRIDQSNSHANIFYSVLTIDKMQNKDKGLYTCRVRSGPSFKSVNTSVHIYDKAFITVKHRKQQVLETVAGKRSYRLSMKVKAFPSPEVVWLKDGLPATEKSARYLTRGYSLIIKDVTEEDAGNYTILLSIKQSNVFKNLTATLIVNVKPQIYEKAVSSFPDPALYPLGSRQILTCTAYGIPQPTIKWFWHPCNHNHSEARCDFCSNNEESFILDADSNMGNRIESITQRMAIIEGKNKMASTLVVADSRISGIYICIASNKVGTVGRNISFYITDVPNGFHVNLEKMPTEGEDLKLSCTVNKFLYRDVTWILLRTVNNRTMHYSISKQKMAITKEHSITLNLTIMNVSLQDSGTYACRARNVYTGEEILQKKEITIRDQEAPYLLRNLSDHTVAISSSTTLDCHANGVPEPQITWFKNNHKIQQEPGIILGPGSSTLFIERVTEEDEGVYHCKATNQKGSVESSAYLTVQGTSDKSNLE

Where two headings read alike, the source gives them in different places.

Sequence of KDR-IgG (P35968 20-764): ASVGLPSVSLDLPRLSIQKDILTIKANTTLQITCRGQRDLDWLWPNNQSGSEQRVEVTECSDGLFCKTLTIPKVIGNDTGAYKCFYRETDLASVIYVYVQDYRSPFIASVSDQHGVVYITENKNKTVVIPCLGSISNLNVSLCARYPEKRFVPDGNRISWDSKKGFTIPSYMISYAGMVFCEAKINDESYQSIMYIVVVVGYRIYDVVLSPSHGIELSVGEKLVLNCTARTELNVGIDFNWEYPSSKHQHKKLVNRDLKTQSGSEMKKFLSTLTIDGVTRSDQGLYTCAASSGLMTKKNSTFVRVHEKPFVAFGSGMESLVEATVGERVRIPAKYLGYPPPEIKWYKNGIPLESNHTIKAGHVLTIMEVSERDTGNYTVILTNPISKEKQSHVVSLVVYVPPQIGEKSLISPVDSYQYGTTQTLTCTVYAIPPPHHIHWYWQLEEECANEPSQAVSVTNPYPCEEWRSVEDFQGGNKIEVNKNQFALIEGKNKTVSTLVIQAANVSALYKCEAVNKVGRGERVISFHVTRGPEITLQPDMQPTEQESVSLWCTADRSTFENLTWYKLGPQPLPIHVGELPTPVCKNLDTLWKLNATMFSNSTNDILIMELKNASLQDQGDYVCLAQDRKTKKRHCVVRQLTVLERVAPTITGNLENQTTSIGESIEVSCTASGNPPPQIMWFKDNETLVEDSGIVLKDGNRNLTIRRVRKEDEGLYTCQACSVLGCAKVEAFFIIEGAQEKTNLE
Sequence of KDR receptors on endothelial cells (bovine) (P12820 29-1306): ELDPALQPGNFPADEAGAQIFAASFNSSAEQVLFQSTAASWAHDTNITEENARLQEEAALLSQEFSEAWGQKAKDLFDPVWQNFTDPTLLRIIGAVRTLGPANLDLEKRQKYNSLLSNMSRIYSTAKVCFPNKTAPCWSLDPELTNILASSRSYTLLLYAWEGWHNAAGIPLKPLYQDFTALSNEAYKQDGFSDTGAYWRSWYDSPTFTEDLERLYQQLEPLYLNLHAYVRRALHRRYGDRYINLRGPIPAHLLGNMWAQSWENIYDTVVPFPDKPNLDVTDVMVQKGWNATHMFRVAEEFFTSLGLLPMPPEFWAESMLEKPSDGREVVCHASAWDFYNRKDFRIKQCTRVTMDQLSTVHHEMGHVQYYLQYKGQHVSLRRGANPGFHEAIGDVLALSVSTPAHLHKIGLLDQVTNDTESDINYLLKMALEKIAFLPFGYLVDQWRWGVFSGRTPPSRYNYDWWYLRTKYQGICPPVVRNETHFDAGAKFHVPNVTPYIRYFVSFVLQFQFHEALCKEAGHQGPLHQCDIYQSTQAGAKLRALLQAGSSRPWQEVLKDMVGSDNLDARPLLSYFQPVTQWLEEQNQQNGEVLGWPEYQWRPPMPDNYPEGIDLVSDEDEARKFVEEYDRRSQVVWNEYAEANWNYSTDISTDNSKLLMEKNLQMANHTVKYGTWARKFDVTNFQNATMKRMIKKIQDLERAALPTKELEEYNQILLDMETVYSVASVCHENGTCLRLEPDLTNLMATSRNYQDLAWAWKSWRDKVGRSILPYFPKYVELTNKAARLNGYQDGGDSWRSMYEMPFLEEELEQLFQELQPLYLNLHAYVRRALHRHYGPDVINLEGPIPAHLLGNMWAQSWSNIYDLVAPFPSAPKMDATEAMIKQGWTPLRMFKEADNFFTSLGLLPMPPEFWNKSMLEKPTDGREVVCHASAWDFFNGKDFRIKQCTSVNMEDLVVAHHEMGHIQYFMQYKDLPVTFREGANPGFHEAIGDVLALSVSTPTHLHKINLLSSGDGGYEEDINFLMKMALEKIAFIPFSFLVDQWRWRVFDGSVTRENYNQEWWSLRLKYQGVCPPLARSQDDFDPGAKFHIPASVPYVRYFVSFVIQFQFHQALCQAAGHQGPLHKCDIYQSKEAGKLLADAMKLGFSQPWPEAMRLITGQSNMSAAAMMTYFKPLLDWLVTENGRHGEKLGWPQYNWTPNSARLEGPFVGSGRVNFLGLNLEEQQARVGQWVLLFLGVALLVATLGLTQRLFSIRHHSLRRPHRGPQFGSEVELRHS

For “K16A, D19T VEGF (from UniProt P15692 181-395) (ligand)”, the half-inhibitory concentration (IC50) (as a rule, the concentration at which inhibition is half-maximal) with KDR-IgG [1] was 2.1 ng/mL; with FLT-1 IgG [4], 0.73 ng/mL; in the assay with KDR-IgG [5], 0.026 nM; with FLT-1 IgG [6] it was 0.019 nM. Moreover, the Half-Maximal Effective Concentration, Endothelial Cells amounted to 53 pM in assay [2] and 2.05 ng/mL in assay [3].
